Experimental findings from the supplement of paper PMC9170038 are described below.

This data set deals with MS2 coat protein. Kind of data set: apparent KD of MS2 coat protein; higher = weaker reporter binding. The note with it: Eterna round: R107. The method in brief: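 Designed RNA switches were transcribed on-chip from Illumina sequencing clusters. They were then titrated with SNAP-549-labelled MS2 coat protein (twofold steps, 0.7 or 1.5 nM to 3 µM; 0.8–1.5 h to 10–20 min per step) in 100 mM Tris-HCl pH 7.5, 80 mM KCl, 4 mM MgCl2, without or with constant ligand. Apparent KD is the per-design median of normalised cluster binding-curve fits.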

Setting [1] is: input ligand: theophylline 20 uM.
The mark [2] stands for this setting: input ligand: theophylline 2 mM.
The mark [3] stands for this setting: input ligand: tryptophan 2.4 mM.

Consider “AUACAUGAGGAUCACCCAUGUAUAGUUGAAGGAGCGACCGGUGGGUCAGGUAGGUCGCAGCGCAUGGCGUCCACGCGUGUAUGCC [#1 Exclusion - Arginine A Attempt #30 (Inspired by Pi)]”, for which the “apparent KD of MS2 coat protein” value is, setting by setting: (input ligand: arginine 13.2 mM) 10.7 nM; (input ligand: none) 10.7 nM; under setting [1], 16.4 nM; under setting [2], 11.3 nM; under setting [3], 11.1 nM.

On to “AUACAUGAGGAUCACCCAUGUUACACUGAAGGAGCGACAUGUUUGUCAGGUAGGUCGCAGUGAAGUUUAAUAAUUCUUUGAUCUU [#06 Same State - Arginine A]”, for which the “apparent KD of MS2 coat protein” value worked out at 22.4 nM (input ligand: arginine 13.2 mM); 24 nM (input ligand: none); 36.4 nM under setting [1]; 26.5 nM under setting [2]; 23.7 nM under setting [3].

As to “AUAUGAUCAUGGGAUACCAGAAAUGGUAUUCCUUUAUUUCUUACAUGAGGAUCACCCAUGUUCCCUUGGCAGCUUAUGAUCAUAU [ETHB #5]”, the “apparent KD of MS2 coat protein” value (input ligand: arginine 13.2 mM) came out at 53.7 nM, the “apparent KD of MS2 coat protein” value under setting [1] worked out at 85.8 nM and the “apparent KD of MS2 coat protein” value under setting [3] was found to be 67.9 nM.

As to “AUAUGAUCAUGUGAUACCAGAAAUGGUAUUCCUCGCUGGAUUACAUGAGGAUCACCCAUGUUCCCUUGGCAGCAUAUGAUCAUAU [#01 Exclusion-TheophyllineB]”, the “apparent KD of MS2 coat protein” value is, setting by setting: (input ligand: arginine 13.2 mM) 21.3 nM; under setting [1], 36.3 nM; under setting [3], 20.9 nM.

Take “AUGAAGCUAAGAGAUACCAGUGACCACAGAUACAUGAGGAUCACCCAUGUCUCAAAUUGUCACCCUUGGCAGCUCACUAUCGAAG [theeternabot_sameState_MS2_Theo_B_29]”: the “apparent KD of MS2 coat protein” value runs as follows: (input ligand: arginine 13.2 mM) 11.2 nM; under setting [1], 11.9 nM; under setting [3], 10.2 nM.

For the sequence “AUGCACAUCUAGGAUACCAGCACCCUUAUGUCACUAGUUAACAUGAGGAUCACCCAUGUUUGCCCUUGGCAGCCUCAUUGACCAU [theeternabot_exclusion_MS2_Theo_B_9]”, the “apparent KD of MS2 coat protein” value reads like this: (input ligand: arginine 13.2 mM) 59.5 nM; under setting [1], 92.7 nM; under setting [3], 59.7 nM.

Take “AUGUAGAACCGAAGGAGCGCGAUGACAUGAGGAUCACCCAUGUAUUUGUGGUGGCUUCGAUCGCAGGUAGGUCGCGGAAGUAGUA [#04 Exclusion - Arginine B]”: the “apparent KD of MS2 coat protein” value (input ligand: arginine 13.2 mM) stood at 96.6 nM; the “apparent KD of MS2 coat protein” value (input ligand: none) is 128 nM; the “apparent KD of MS2 coat protein” value under setting [1] was 162 nM; the “apparent KD of MS2 coat protein” value under setting [2] was 346 nM; the “apparent KD of MS2 coat protein” value under setting [3] was determined as 211 nM.

Turning to “AUGUCGUUGAAUAUAGCGGCUUGGAGUGAUACCAGUAUGAUCCAAUACCCUUGGCAGCAUUACAUGAGGAUCACCCAUGUUCCAG [SSTheo A #24]”, the “apparent KD of MS2 coat protein” value came out at 17.2 nM (input ligand: arginine 13.2 mM); 22.6 nM (input ligand: none); 37.2 nM under setting [1]; 53.4 nM under setting [2]; 34 nM under setting [3].

Turning to “AUUAACAUGAGGAUCACCCAUGUUCUCACACGAGGACCGGUACGGCCGCCACUCGGUUUGGUAUUGGUCACUAGGCAGUUAGGAG [theeternabot_sameState_MS2_Trp_A_12]”, the “apparent KD of MS2 coat protein” value was 15.2 nM (input ligand: arginine 13.2 mM), 26.7 nM under setting [1] and 17 nM under setting [2].

For the sequence “AUUAUAGUUUAUAAGGAAAUUGAAACAGAAGGAGCGUGAGUAAUCACAGGUAGGUCGCUGGUAGUACAUGAGGAUCACCCAUGUU [JR_Nu_SSArginiA_Sub019]”, the “apparent KD of MS2 coat protein” value is, setting by setting: (input ligand: arginine 13.2 mM) 21.9 nM; (input ligand: none) 24.1 nM; under setting [1], 32.2 nM; under setting [2], 26.5 nM; under setting [3], 22.4 nM.

As for “AUUCAUGGAAACAUGACAUACAUAACCGGUCGAGGACCGGUACGGCCGCCACUCGUUUGGAGGCACAUGAGGAUCACCCAUGUUA [SS Tryp A #9]”, the “apparent KD of MS2 coat protein” value by setting is: (input ligand: arginine 13.2 mM) 21.7 nM; under setting [1], 35.9 nM; under setting [2], 28.2 nM.

Regarding “AUUCAUGGAAACAUGAGAUAUCCUACCGGUCGAGGACCGGUACGGCCGCCACUCGGUUGGUGGCACAUGAGGAUCACCCAUGUUA [SS Tryp A #12]”, the “apparent KD of MS2 coat protein” value came out at 77.6 nM (input ligand: arginine 13.2 mM), 310 nM under setting [1] and 378 nM under setting [2].

Turning to “CAAUAAGUACCGGUCCUCAGAUCCUCAUGACGAGGACCGGUACGGCCGCCACUCGAAACAUGAGGAUCACCCAUGUAAUAAUAAC [Brourdmod02]”, the “apparent KD of MS2 coat protein” value is, setting by setting: (input ligand: arginine 13.2 mM) 20.6 nM; under setting [1], 68.4 nM; under setting [2], 51.9 nM.

As for “CAAUAGAUAGCGGCCGCCACUUACUCAUGAGGUAACAACAUGAGGAUCACCCAUGUUUGAGGAUCAAGGACCGGGCUAUUUAUUG [AstrosSSTryB#7]”, the “apparent KD of MS2 coat protein” value is, setting by setting: (input ligand: arginine 13.2 mM) 29.1 nM; (input ligand: none) 27.5 nM; under setting [1], 39.1 nM; under setting [2], 31.9 nM; under setting [3], 19.1 nM.

Regarding “CACGCACGAUCGGCCGCCACUCGUGUAGCUUACAUGAGGAUCACCCAUGUAUGUUCAUUCAUAUAGAGGACCGGGAUCGUGCGUG [#05 Same State - Tryptophan B]”, the “apparent KD of MS2 coat protein” value worked out at 9.09 nM (input ligand: arginine 13.2 mM); 12.8 nM (input ligand: none); 18.5 nM under setting [1]; 12.1 nM under setting [2]; 11.7 nM under setting [3].

Consider “CAUAGCAAAAGUGAUACCAGAGUUCGAGGGAACAUGAGGAUCACCCAUGUGCUUGUACAACUCCCUUGGCAGCACAGAGCAAUUA [theeternabot_sameState_MS2_Theo_B_16]”, for which the “apparent KD of MS2 coat protein” value is, setting by setting: (input ligand: arginine 13.2 mM) 24.3 nM; under setting [1], 22.1 nM; under setting [3], 26.9 nM.

“CAUAUAUAUGGAAGGAGCGCGAUUACAUAACAUGAGGAUCACCCAUGUAAGAAAUUAUUCAUGCAGGUAGGUCGCCAUAUAUAUG [Same State Arginine B GF6]”: the “apparent KD of MS2 coat protein” value (input ligand: arginine 13.2 mM) worked out at 29.3 nM; the “apparent KD of MS2 coat protein” value (input ligand: none) is 24 nM; the “apparent KD of MS2 coat protein” value under setting [1] worked out at 35.3 nM; the “apparent KD of MS2 coat protein” value under setting [2] worked out at 27 nM; the “apparent KD of MS2 coat protein” value under setting [3] is 26.6 nM.

Regarding “CAUUUUAGAAAACUAAAAUGAGUGGGUGAACGAGGACCGGUACGGCCGCCACUCGGACAUGAGGAUCACCCAUGUCCAUGUGAAA [AstrosExyTryA#22]”, the “apparent KD of MS2 coat protein” value runs as follows: (input ligand: arginine 13.2 mM) 22.8 nM; (input ligand: none) 14.1 nM; under setting [1], 15 nM; under setting [2], 14.4 nM; under setting [3], 37.8 nM.
